Here are results for one molecule from paper PMC8301893, “Identification of HSP47 Binding Site on Native Collagen and Its Implications for the Development of HSP47 Inhibitors” (Biomolecules, 2021).

The target of assay [1] is Collagen from calf skin (Sigma-Aldrich, Cat No: C9791) (calf) (UniProt P02453).
Assay [2] addresses Integrin peptide 1 (GFOGER flanked by [GPP]5 at both ends). The assay is described as follows: ELISA; solid-phase binding assay (SPBA): peptides coated at 10 µg/mL overnight at 4 °C on Immulon 2HB 96-well plates, blocked with TBS containing 5% BSA; 1 µg/mL recombinant HSP47 for 1 h at room temperature; HRP-conjugated anti-His antibody, TMB, A450; means of three independent experiments. Background: ELISA stands for enzyme-linked immunosorbent assay.

Chain of UniProt P02453 (P02453 162-1217, chain 1 of 2): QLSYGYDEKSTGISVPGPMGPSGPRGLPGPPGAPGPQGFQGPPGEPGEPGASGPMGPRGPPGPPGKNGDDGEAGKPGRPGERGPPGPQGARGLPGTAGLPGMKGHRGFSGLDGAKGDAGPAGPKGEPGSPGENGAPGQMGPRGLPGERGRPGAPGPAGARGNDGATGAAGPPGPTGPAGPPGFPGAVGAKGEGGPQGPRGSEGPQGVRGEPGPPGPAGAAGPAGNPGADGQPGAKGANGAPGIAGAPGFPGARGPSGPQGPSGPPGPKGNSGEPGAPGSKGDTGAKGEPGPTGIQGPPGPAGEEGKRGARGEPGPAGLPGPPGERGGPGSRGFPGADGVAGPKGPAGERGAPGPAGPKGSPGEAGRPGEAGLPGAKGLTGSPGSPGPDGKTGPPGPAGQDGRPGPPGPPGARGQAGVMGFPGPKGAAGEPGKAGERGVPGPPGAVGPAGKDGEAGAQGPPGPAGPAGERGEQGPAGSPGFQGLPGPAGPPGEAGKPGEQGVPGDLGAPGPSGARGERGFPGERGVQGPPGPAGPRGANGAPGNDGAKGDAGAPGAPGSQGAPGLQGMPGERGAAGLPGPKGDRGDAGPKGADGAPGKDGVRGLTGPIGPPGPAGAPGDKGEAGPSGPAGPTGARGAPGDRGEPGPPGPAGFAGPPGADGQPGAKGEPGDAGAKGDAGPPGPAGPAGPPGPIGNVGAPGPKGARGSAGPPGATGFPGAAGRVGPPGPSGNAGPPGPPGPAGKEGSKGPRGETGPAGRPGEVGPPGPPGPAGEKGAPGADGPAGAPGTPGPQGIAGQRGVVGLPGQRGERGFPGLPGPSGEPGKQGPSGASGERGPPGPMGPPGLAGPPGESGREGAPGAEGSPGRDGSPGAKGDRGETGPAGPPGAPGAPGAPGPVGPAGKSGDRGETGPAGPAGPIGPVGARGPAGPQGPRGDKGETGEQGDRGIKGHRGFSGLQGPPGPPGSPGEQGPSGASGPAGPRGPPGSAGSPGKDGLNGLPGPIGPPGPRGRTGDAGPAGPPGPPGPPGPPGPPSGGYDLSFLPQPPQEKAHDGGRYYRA
Chain of UniProt P02453 (P02465 80-1117, chain 2 of 2, further chain): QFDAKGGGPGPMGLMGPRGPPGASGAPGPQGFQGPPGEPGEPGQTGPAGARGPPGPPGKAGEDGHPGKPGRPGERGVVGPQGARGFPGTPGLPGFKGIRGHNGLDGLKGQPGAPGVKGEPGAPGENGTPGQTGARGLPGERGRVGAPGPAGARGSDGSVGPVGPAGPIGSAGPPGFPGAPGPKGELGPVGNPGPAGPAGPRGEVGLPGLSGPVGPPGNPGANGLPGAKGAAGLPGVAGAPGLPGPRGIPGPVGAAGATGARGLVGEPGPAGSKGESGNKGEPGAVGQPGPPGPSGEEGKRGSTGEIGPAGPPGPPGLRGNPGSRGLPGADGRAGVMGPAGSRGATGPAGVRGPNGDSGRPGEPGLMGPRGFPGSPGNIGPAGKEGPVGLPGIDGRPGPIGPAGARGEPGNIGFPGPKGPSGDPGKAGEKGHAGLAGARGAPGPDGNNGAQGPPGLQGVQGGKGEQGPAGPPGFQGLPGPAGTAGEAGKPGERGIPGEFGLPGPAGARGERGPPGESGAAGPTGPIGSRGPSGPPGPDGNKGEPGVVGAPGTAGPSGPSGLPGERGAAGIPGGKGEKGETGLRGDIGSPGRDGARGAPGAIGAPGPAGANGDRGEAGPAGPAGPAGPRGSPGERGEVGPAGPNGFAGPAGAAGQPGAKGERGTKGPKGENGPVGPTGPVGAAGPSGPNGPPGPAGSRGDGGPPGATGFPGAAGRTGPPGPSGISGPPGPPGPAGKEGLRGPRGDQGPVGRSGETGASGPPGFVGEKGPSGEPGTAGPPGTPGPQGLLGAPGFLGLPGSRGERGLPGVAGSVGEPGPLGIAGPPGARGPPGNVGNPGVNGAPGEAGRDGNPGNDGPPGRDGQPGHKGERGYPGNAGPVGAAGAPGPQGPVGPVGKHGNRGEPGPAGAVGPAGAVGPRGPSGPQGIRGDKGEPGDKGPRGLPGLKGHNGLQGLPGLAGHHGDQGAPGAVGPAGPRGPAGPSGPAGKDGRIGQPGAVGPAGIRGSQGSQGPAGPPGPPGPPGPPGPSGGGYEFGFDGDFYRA

B1: human HSP47 (heat shock protein 47), amino acids 19-418, C-terminal His-tag (natural protein)
chain: AEVKKPAAAAAPGTAEKLSPKAATLAERSAGLAFSLYQAMAKDQAVENILVSPVVVASSLGLVSLGGKATTASQAKAVLSAEQLRDEEVHAGLGELLRSLSNSTARNVTWKLGSRLYGPSSVSFADDFVRSSKQHYNCEHSKINFRDKRSALQSINEWAAQTTDGKLPEVTKDVERTDGALLVNAMFFKPHWDEKFHHKMVDNRGFMVTRSYTVGVMMMHRTGLYNYYDDEKEKLQIVEMPLAHKLSSLIILMPHHVEPLERLEKLLTKEQLKIWMGKMQKKAVAISLPKGVVEVTHDLQKHLAGLGLTEAIDKNKADLSRMSGKKDLYLASVFHATAFELDTDGNPFDQDIYGREELRSPKLFYADHPFIFLVRDTQSGSLLFIGRLVRPKGDKMRDEL
In assay [1], B1 yielded an IC50 of the small molecule Com II against HSP47 (2.6 μM) in the turbidity assay of collagen fibril formation of 50 to 100 µM, an IC50 of the small molecule Hs1 against HSP47 (2.6 μM) in the turbidity assay of collagen fibril formation of 97 µM and an IC50 of the small molecule Hs55 against HSP47 (2.6 μM) in the turbidity assay of collagen fibril formation of 55 µM. For the same molecule, the Mean A450 in assay [2] is > 2 A450.
